Laboratory results as given in publication PMC4634304, “Evidence-Based Structural Model of the Staphylococcal Repressor Protein: Separation of Functions into Different Domains”.

Key:
[1] = target: Φ11 dUTPase, dUTPase enzyme from the Φ11 Staphylococcal phage (Staphylococcal phage Φ11); assay: inhibition of enzyme activity (steady-state dUTPase kinetics); 20 nM Φ11 dUTPase, 1 mM HEPES-HCl pH 7.5, 5 mM MgCl2, 150 mM KCl, phenol red, 293 K; the two proteins preincubated 5 min; quadratic binding equation fitted; apparent Ki
[2] = target: Φ11 dUTPase, dUTPase enzyme from the Φ11 Staphylococcal phage (Staphylococcal phage Φ11)
[3] = target: Φ11 dUTPase, dUTPase enzyme from the Φ11 Staphylococcal phage (Staphylococcal phage Φ11); remark: listed apart in the source
Stl-CTD = Stl-CTD (Staphylococcus aureus pathogenicity …, UniProt Q9F0J8 85-267); assay: EMSA; no shift at 2-30 uM Stl-CTD (monomer); details: protein: recombinant; tags: N-terminal GST removed by thrombin (pGEX-4T-1); label: none (GelRed stain); blunt
[4] = target: Stl (SaPIbov1 repressor), wild type (Staphylococcus aureus pathogenicity …, UniProt Q9F0J8); assay: EMSA; shift at 1 uM Stl (monomer); details: protein: recombinant; tags: N-terminal GST removed by thrombin (pGEX-4T-1); chain copies: 2; label: none (GelRed stain); blunt

Stl-Q40A,N41A double mutant of the SaPIbov1 repressor Stl (natural protein)
Ki [1]: 1.4 nM
maximal inhibition of Φ11 dUTPase activity by Stl-AA [2]: > 90%

Stl-CTD, carboxy-terminal domain of the SaPIbov1 pathogenicity island repressor Stl (domain or fragment)
Ki [1]: 1.5 nM
maximum inhibition of Φ11 dUTPase activity at saturating Stl-CTD concentration [3]: 40%

B1: 57mer Stl-binding dsDNA (dsDNA)
DNA 1: GCTCATATTATTCCTCTCCTACCATTTTATCTCTAATTGAGATATTTATATTCAGAT
DNA 2: ATCTGAATATAAATATCTCAATTAGAGATAAAATGGTAGGAGAGGAATAATATGAGC
binding result (Stl-CTD): no binding
binding result [4]: binds
